T1: HP0221-T25 (NifU) (Helicobacter pylori strain 26695, UniProt O25009 2-326)
T1 sequence (looked up): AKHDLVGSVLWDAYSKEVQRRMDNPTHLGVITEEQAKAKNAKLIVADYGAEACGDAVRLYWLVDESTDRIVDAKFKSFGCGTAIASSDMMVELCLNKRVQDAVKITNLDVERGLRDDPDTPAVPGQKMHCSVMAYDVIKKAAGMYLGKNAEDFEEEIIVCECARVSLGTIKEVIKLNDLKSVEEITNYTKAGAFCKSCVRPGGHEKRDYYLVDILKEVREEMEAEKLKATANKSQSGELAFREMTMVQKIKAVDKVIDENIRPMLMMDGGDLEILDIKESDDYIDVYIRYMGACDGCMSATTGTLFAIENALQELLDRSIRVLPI

T2: T25-HP1492 (Nfu) (Helicobacter pylori strain 26695, UniProt O26025 2-89)
T2 sequence (looked up): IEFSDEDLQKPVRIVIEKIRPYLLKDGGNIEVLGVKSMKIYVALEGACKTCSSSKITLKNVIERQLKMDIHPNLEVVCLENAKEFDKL

T3: T25-HP0221 (NifU) (Helicobacter pylori strain 26695, UniProt O25009 2-326)
T3 sequence (looked up): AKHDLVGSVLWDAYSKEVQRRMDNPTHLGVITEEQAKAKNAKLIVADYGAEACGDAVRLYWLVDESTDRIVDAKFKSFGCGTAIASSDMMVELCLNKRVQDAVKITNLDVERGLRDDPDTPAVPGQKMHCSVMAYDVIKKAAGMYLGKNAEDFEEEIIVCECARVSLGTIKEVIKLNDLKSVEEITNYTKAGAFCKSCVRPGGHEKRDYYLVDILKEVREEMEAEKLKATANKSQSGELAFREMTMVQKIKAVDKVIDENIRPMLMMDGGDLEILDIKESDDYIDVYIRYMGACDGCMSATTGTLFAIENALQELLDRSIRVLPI


Columns and labels:
Test in all cases: two-hybrid
HP0221-T25 (NifU) = target: T1, HP0221-T25 (NifU)
T25-HP1492 (Nfu) = target: T2, T25-HP1492 (Nfu)
T25-HP0221 (NifU) = target: T3, T25-HP0221 (NifU)

Binder | growth OD595 in M63-maltose (HP0221-T25 (NifU)) [OD595] | growth OD595 in M63-maltose (T25-HP1492 (Nfu)) [OD595] | growth OD595 in M63-maltose (T25-HP0221 (NifU)) [OD595]
T18-HP0568 (natural protein, Helicobacter pylori strain 26695, UniProt O25292 2-255, looked up) PLELFEKVCKEVAPLTQMITLHVLGDPCKLKNLNHYLSTARRFSLKVDLVTSGVYLHDFETLLQDVIYQISISLDAGLDHRNKLNQHRYIQKILEFCRYKCEKNSEVFLNLRIQDSTLDKHQNLIKPFLESFECVSLEGLKTQGRARLFKKSFLNIQKTFKWPSLNAQNPLNQKSKIPYCYGLIKQIAILSNGVVVPCCMDTQANISLGDLNHTPLKDVLKSQKAMAIKTHFLKGEALELLCQNCSYPLIRYKK | 0.36 | 0.14 | 0.13
T18-HP0585 (natural protein, Helicobacter pylori strain 26695, UniProt O25307 2-218, looked up) KMGLKRAKTHQKAQQIKELLLKHYPNQTTELRHKNPYELLVATILSAQCTDARVNQITPKLFEKYPSVNDLALASLEEVKEIIKSVSYFNNKSKHLISMAQKVVRDFKGVIPSTQKELMSLDGVGQKTANVVLSVCFDANCIAVDTHVFRATHRLGLSNAKDPIKTEEELSDLFKDNLSKLHHALILFGRYTCKAKNPLCGACFLKEFCVSKASFKA | 0.15 | 0.06 | 0.21
T18-HP0132 (natural protein, Helicobacter pylori strain 26695, UniProt P56072 2-455, looked up) ASFSILSIFKIGVGPSSSHTIGPMEAGARFCESLKGILEQVVRVQITLHGSLALTGKGHLSDEAVLIGLHGIYANELEVTTKKALLHEALENKVLKLANQHHIPFDYAKDLIFDNKPLTRHQNALILKAFNSKNEVLKEETYYSVGGGFVYTEKELDNLSEEDGNESIAYDFSSAKELLELCQKHQKSIAEIVRLRENALKNHPDATMVKIYHAMLECYDNGANSKERYLPGSLKVTRLAPSIKTRLEKHPTSGKDPLALIDYISLYARAIAEENASGGKVVTAPTNGACAVVPSVLLYAKNHLFENLSQKAINDFLLTSAAIGYLYKKNASLSGAEAGCQAEIGVASSMAAGGLAHLCQATTQQVLIASEIAMEHHLGLTCDPVGGLVQIPCIERNVLGAIKAISASKLALEDEYKPKVSLDEVIATMYATGKDMNEKYKETSLGGLAKTLKC | 0.14 | 0.27 | 0.21
T18-HP0666 (natural protein, Helicobacter pylori strain 26695, UniProt O25377 2-433, looked up) NENINENIFEEVGDACVKCAKCVPGCTIYRIHKDEATSPRGFLDLMRLNAQNKLQLDTNLKHLLETCFLCTACVEICPFHLPIDTLIEKAREKIAQKHGIAWYKKSYFSLLKNRKKMDRVFSTAHFLAPCVFKQVGDSLEPRAVFKGLFKRFKKSALPPLNQKSFLQKHAEMKLLENPIQKVAIFIGCLSNYHYQQVGESLLYILEKLNIQAIIPKQECCSAPAYFTGDKDTTLFLVKKNIEWFESYLDKVDAIIVPEATCASMLINDYYKVFLGEKDKDLYVKRLEKITPKIYLASVFLEKHTPLKSLLEKIPKGKKETITYHNPCHAKKTLNAHKEVRNLLNLHYEIKEMPDNCCGFGGITMQTQKAGFSLKVGLLRAKEIIDTKAAILSAECGACHMQLNNALKSLDDPNTPPFLHPLELIAKALKSAE | 0.11 |  | 0.48
T18-HP0734 (natural protein, Helicobacter pylori strain 26695, UniProt O25434 2-439, looked up) QVKENKQLCLISLGCSKNLVDSEVMLGKLYNYTLTNDAKSADVILINTCGFIESAKQESIQTILNAAKDKKEGAILIASGCLSERYKDEIKELIPEVDIFTGVGDYDKIDIMIAKKQNQFSEQVFLSEHYNARIITGSSVHAYVKISEGCNQKCSFCAIPSFKGKLQSRELDSILKEVENLALKGYTDMTFIAQDSSSFLYDKGQKDGLIQLIRAIDKQQALKSARILYLYPSSTTLELIGAIESSPIFQNYFDMPIQHISDSMLKKMRRNSSQAHHLKLLDAMKQVKESFIRSTIIVGHPEENESEFEELSAFLDEFQFDRLNIFAFSAEENTHAYSLEKVPKKTINARIKALNKIALKHQNHSFKALLNKPIKALVENKEGEYFYKARDLRWAPEVDGEILINDSELTTPLKPGHYTIAPSEFKDNILLAKVLSPF | 0.48 | 0.12 | 0.4
T18-HP1089 (natural protein, Helicobacter pylori strain 26695, UniProt O25721 2-778, looked up) NLEKLFLEKTPLFVFSSTRRLKHFYLEQGEGFLPNAMSMGNFFEQAFYIPNKKKIPNSARLILMIDTIKAIAKEKKSILEGLLLFENSFLGYLESTSFLFDLFDELSSACIKLNELSSKDIYLDYEKHLEVLEMIYDRYIKKLEGLGFYDKIMQEKPAILKEFFEHFSSIEWHLDGFMSVFERQCLLEAAELVPITLHLSCDKYNQKFLEFLNLKLETDCDYSIDFKTQKILSQTPKRQKIEPKLYANSSYLKQSALVLQTIEEYLQKDNDPNKMAIITPNADFLPFLKLLDKNNNLNFAMGLGAKNSPYYTELVKILEDLETSDLDLSGSALLDLENITLALLEQQSSKEKAPLKEAHSQIMHQYHLLKDTLKNYSLKDLLHLYLQEFEANFRLDDSSGGKIRVMDTLETRGMQFDKIVIVDFNETCVPSLKDCDLFLNSALRKSLNLPTLLDKKNLQKHYYYQLFKNSKEITLSYIESETSKASNMLLELNLHIEPIKDAYTLFAPSPLKDYQEEEIKAAIPKDFSFSASSLNAFLTCKRRFYYHYIKRFKESPKDENNSAVGSLLHELLKEAYEKDKTPHALEERLIWLLETRENITPKERLDTLVVLKKIQAFYKKERERFNAEITILDLEKSFETIIQGVIFKGRIDRIDKTADNEIILLDYKFKSDLKLDSMSKTQRGGLSPIEIAQISTDYQMAIYAFALKNLGYKEPIKAFFYDLRKGELLEEEELILQAKMDHLEFSLIPKLKQEIDFEKTLEVKDCEYCSFKDMCNR | 0.29 |  | 0.26
T18-HP1268 (natural protein, Helicobacter pylori strain 26695, UniProt O25858 2-220, looked up) AKQEYKQLPKRAEVHSATEQFKDTVKTSLGLDLFKGLGLTIKEFFSPSVTIHYPMEQLPLSPRYRAVHNLQRLLDSGSERCIGCGLCEKICTSNCIRIITHKGEDNRKKIDSYTINLGRCIYCGLCAEVCPELAIVMGNRFENASTQRSQYGSKSEFLTSEQDAKNCSHAEFLGFGAVSPNYNERMQATPLDYVQEPSKEESQEETPTNPESNKGDENV | 0.22 | 0.18 | 0.33
T18-HP1428 (natural protein, Helicobacter pylori strain 26695, UniProt O25970 2-357, looked up) KASIYDFTLKELSQLLKPSFRAKQLYLWLYAKYKTSFKDMQNNFSKDFIAYLEREFALRTIEITHVRESVDGSKKYLFKSLRDNHTFEAVLLKMKDKKIDAETNAILEREKYTVCVSCQIGCQVGCSFCFTQKGGFVRNLKASEIIQQALLIKEDNNLPLEKALNIVFMGMGEPLNNLDEVCKAIEIFNTGMQISPKRITISTSGVADKIPILAGKNLGVQLAISLHAVDDKTRSSLMPLNKKYNIECVLNEVRKWPLEQRKRVMFEYLLIKDLNDSLDCAKKLLKLLNGIKSKVNLILFNPHEGSKFERPSLENARMFADFLNSKGLLCTIRESKALDIEAACGQLREKKLSQQI | 0.27 | 0.08 | 0.15
T18-HP1540 (natural protein, Helicobacter pylori strain 26695, UniProt O26065 2-167, looked up) ADIQRRDFLGMSLASVTAIGAIASLVAMKKTWDPLPSVVSAGFTTIDVANMQEGQFSTVEWRGKPVYILKRSKKEGFNEKRDFKVGESVFTTAIQICTHLGCIPTYQDEEKGFLCPCHGGRFTSDGVNIAGTPPPRPFDIPPFKIEGTKITFGEAGAEYKKMMAKA | 0.44 | 0.17 | 0.24
